B1: SULT1A1*1 (Homo sapiens) (protein)
chain: MELIQDTSRPPLEYVKGVPLIKYFAEALGPLQSFQARPDDLLISTYPKSGTTWVSQILDMIYQGGDLEKCHRAPIFMRVPFLEFKAPGIPSGMETLKDTPAPRLLKTHLPLALLPQTLLDQKVKVVYVARNAKDVAVSYYHFYHMAKVHPEPGTWDSFLEKFMVGEVSYGSWYQHVQEWWELSRTHPVLYLFYEDMKENPKREIQKILEFVGRSLPEETVDFVVQHTSFKEMKKNPMTNYTTVPQEFMDHSISPFMRKGMAGDWKTTFTVAQNERFDADYAEKMAGCSLSFRSEL
B2: SULT1A1*2 (Homo sapiens; R213H) (protein)
chain: MELIQDTSRPPLEYVKGVPLIKYFAEALGPLQSFQARPDDLLISTYPKSGTTWVSQILDMIYQGGDLEKCHRAPIFMRVPFLEFKAPGIPSGMETLKDTPAPRLLKTHLPLALLPQTLLDQKVKVVYVARNAKDVAVSYYHFYHMAKVHPEPGTWDSFLEKFMVGEVSYGSWYQHVQEWWELSRTHPVLYLFYEDMKENPKREIQKILEFVGHSLPEETVDFVVQHTSFKEMKKNPMTNYTTVPQEFMDHSISPFMRKGMAGDWKTTFTVAQNERFDADYAEKMAGCSLSFRSEL
B3: UGT 1A9 (Homo sapiens) (protein)
chain: GKLLVVPMDGSHWFTMRSVVEKLILRGHEVVVVMPEVSWQLGRSLNCTVKTYSTSYTLEDLDREFKAFAHAQWKAQVRSIYSLLMGSYNDIFDLFFSNCRSLFKDKKLVEYLKESSFDAVFLDPFDNCGLIVAKYFSLPSVVFARGILCHYLEEGAQCPAPLSYVPRILLGFSDAMTFKERVRNHIMHLEEHLLCHRFFKNALEIASEILQTPVTEYDLYSHTSIWLLRTDFVLDYPKPVMPNMIFIGGINCHQGKPLPMEFEAYINASGEHGIVVFSLGSMVSEIPEKKAMAIADALGKIPQTVLWRYTGTRPSNLANNTILVKWLPQNDLLGHPMTRAFITHAGSHGVYESICNGVPMVMMPLFGDQMDNAKRMETKGAGVTLNVLEMTSEDLENALKAVINDKSYKENIMRLSSLHKDRPVEPLDLAVFWVEFVMRHKGAPHLRPAAHDLTWYQYHSLDVIGFLLAVVLTVAFITFKCCAYGYRKCLGKKGRVKKAHKSKTH
B4: UGT 1A1 (Homo sapiens) (protein)
chain: HAGKILLIPVDGSHWLSMLGAIQQLQQRGHEIVVLAPDASLYIRDGAFYTLKTYPVPFQREDVKESFVSLGHNVFENDSFLQRVIKTYKKIKKDSAMLLSGCSHLLHNKELMASLAESSFDVMLTDPFLPCSPIVAQYLSLPTVFFLHALPCSLEFEATQCPNPFSYVPRPLSSHSDHMTFLQRVKNMLIAFSQNFLCDVVYSPYATLASEFLQREVTVQDLLSSASVWLFRSDFVKDYPRPIMPNMVFVGGINCLHQNPLSQEFEAYINASGEHGIVVFSLGSMVSEIPEKKAMAIADALGKIPQTVLWRYTGTRPSNLANNTILVKWLPQNDLLGHPMTRAFITHAGSHGVYESICNGVPMVMMPLFGDQMDNAKRMETKGAGVTLNVLEMTSEDLENALKAVINDKSYKENIMRLSSLHKDRPVEPLDLAVFWVEFVMRHKGAPHLRPAAHDLTWYQYHSLDVIGFLLAVVLTVAFITFKCCAYGYRKCLGKKGRVKKAHKSKTH
B5: UGT 1A8 (Homo sapiens) (protein)
chain: GKLLVVPMDGSHWFTMQSVVEKLILRGHEVVVVMPEVSWQLGKSLNCTVKTYSTSYTLEDLDREFMDFADAQWKAQVRSLFSLFLSSSNGFFNLFFSHCRSLFNDRKLVEYLKESSFDAVFLDPFDACGLIVAKYFSLPSVVFARGIACHYLEEGAQCPAPLSYVPRILLGFSDAMTFKERVRNHIMHLEEHLFCQYFSKNALEIASEILQTPVTAYDLYSHTSIWLLRTDFVLDYPKPVMPNMIFIGGINCHQGKPLPMEFEAYINASGEHGIVVFSLGSMVSEIPEKKAMAIADALGKIPQTVLWRYTGTRPSNLANNTILVKWLPQNDLLGHPMTRAFITHAGSHGVYESICNGVPMVMMPLFGDQMDNAKRMETKGAGVTLNVLEMTSEDLENALKAVINDKSYKENIMRLSSLHKDRPVEPLDLAVFWVEFVMRHKGAPHLRPAAHDLTWYQYHSLDVIGFLLAVVLTVAFITFKCCAYGYRKCLGKKGRVKKAHKSKTH
B6: UGT 1A3 (Homo sapiens) (protein)
chain: GKVLVVPIDGSHWLSMREVLRELHARGHQAVVLTPEVNMHIKEENFFTLTTYAISWTQDEFDRHVLGHTQLYFETEHFLKKFFRSMAMLNNMSLVYHRSCVELLHNEALIRHLNATSFDVVLTDPVNLCAAVLAKYLSIPTVFFLRNIPCDLDFKGTQCPNPSSYIPRLLTTNSDHMTFMQRVKNMLYPLALSYICHAFSAPYASLASELFQREVSVVDILSHASVWLFRGDFVMDYPRPIMPNMVFIGGINCANRKPLSQEFEAYINASGEHGIVVFSLGSMVSEIPEKKAMAIADALGKIPQTVLWRYTGTRPSNLANNTILVKWLPQNDLLGHPMTRAFITHAGSHGVYESICNGVPMVMMPLFGDQMDNAKRMETKGAGVTLNVLEMTSEDLENALKAVINDKSYKENIMRLSSLHKDRPVEPLDLAVFWVEFVMRHKGAPHLRPAAHDLTWYQYHSLDVIGFLLAVVLTVAFITFKCCAYGYRKCLGKKGRVKKAHKSKTH
B7: UGT 1A10 (Homo sapiens) (protein)
chain: GKLLVVPMDGSHWFTMQSVVEKLILRGHEVVVVMPEVSWQLERSLNCTVKTYSTSYTLEDQNREFMVFAHAQWKAQAQSIFSLLMSSSSGFLDLFFSHCRSLFNDRKLVEYLKESSFDAVFLDPFDTCGLIVAKYFSLPSVVFTRGIFCHHLEEGAQCPAPLSYVPNDLLGFSDAMTFKERVWNHIVHLEDHLFCQYLFRNALEIASEILQTPVTAYDLYSHTSIWLLRTDFVLDYPKPVMPNMIFIGGINCHQGKPLPMEFEAYINASGEHGIVVFSLGSMVSEIPEKKAMAIADALGKIPQTVLWRYTGTRPSNLANNTILVKWLPQNDLLGHPMTRAFITHAGSHGVYESICNGVPMVMMPLFGDQMDNAKRMETKGAGVTLNVLEMTSEDLENALKAVINDKSYKENIMRLSSLHKDRPVEPLDLAVFWVEFVMRHKGAPHLRPAAHDLTWYQYHSLDVIGFLLAVVLTVAFITFKCCAYGYRKCLGKKGRVKKAHKSKTH
B8: UGT 2B7 (Homo sapiens) (protein)
chain: GKVLVWAAEYSHWMNIKTILDELIQRGHEVTVLASSASILFDPNNSSALKIEIYPTSLTKTELENFIMQQIKRWSDLPKDTFWLYFSQVQEIMSIFGDITRKFCKDVVSNKKFMKKVQESRFDVIFADAIFPCSELLAELFNIPFVYSLSFSPGYTFEKHSGGFIFPPSYVPVVMSELTDQMTFMERVKNMIYVLYFDFWFEIFDMKKWDQFYSEVLGRPTTLSETMGKADVWLIRNSWNFQFPYPLLPNVDFVGGLHCKPAKPLPKEMEDFVQSSGENGVVVFSLGSMVSNMTEERANVIASALAQIPQKVLWRFDGNKPDTLGLNTRLYKWIPQNDLLGHPKTRAFITHGGANGIYEAIYHGIPMVGIPLFADQPDNIAHMKARGAAVRVDFNTMSSTDLLNALKRVINDPSYKENVMKLSRIQHDQPVKPLDRAVFWIEFVMRHKGAKHLRVAAHDLTWFQYHSLDVIGFLLVCVATVIFIVTKCCLFCFWKFARKAKKGKND

Results on eight proteins are retold here after article PMC8929358.

Substrate in one series: Cc1c(Cl)c(C)[n+]([O-])c(Cl)c1-c1noc(-c2cc(O)c(O)c([N+](=O)[O-])c2)n1
Put plainly: not read. To be noted: other: substrate inhibition fit; pH 7.4; 37.0 °C. The format is in vitro ADME, human.
A word on the Km: it is the substrate concentration at which the rate is half of its maximum. As for B1, the Km was determined as 18.7 µM.

For the protein B2, the Km is 27.3 µM.

Substrate in a further series: Cc1c(Cl)c(C)[n+]([O-])c(Cl)c1-c1noc(-c2cc(O)c(O)c([N+](=O)[O-])c2)n1
Put plainly: cells, lysate or membranes named. The series is classed as in vitro ADME, human. Particulars: pH 7.5; 37.0 °C.
Consider B3, for which the Km was 13.7 µM.

Regarding B4, the Km came out at 18 µM.

With B5, the Km came to 34.8 ± 9.6 µM.

Turning to B6, the Michaelis constant (Km) stood at 213 µM.

On to B7, for which the Km stood at 64.9 ± 23.8 µM.

For B8, the Michaelis-Menten constant (Km) was 20.6 µM.
